Values belong to the binder of their own block, whether it stands above or below them.
Biological target: T1, human guanylyl cyclase C (GCC) (human, UniProt P25092 24-430, limits assumed)
T1 construct: also called human GCC; STAR
Assay: not described

T1 sequence (P25092 24-430 limits assumed): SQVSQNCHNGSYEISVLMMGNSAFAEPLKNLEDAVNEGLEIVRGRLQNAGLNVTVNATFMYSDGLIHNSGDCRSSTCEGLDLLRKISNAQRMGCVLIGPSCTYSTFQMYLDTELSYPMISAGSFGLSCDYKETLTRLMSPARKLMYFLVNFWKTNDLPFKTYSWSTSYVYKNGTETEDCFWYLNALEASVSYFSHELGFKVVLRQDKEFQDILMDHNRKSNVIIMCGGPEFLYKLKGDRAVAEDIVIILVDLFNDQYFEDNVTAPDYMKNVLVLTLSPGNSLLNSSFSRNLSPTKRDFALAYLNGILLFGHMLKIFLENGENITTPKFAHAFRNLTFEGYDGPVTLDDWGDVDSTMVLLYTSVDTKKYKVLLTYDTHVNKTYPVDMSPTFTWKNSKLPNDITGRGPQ

binding result: binds
B1: MS20 mouse monoclonal antibody (IgG2ak) (antibody, V domains shown)
VH: EVQLEESGPELVKPGASVKMSCKASGYTFTDYVISWVKQRTGQGLEWIGVTYPGSGNTYYGERFKGKATLTVDKMSNTAYMQLSSLTSEDSAVYFCTRNYGSFYALDYWGQGTSVTVSS
VL: DILMTQSPATLSVTPGDRVSLSCRASQSIRDYLHWYQHRSHESPRLLIKYASQSISGIPSRFSGSGSGSDFTLTINSVEPEDVGVYYCQNGHSFPTFGGGTKLEIK

binding result: binds
B2: MS7 mouse monoclonal antibody (IgG1k) (antibody, V domains shown)
VH: EVMLVESGGGLVKPGGSLKLSCAASGFTFSTYAMSWVRQTPEKRLEWVATITSGGSYTYYPDSVKGRFTISRDNAKNILYLQMSSLRSEDTAMYYCTRLRQIGLRGFSDYWGQGTTLTVSS
VL: DILMTQSPSSMYASLGERVTITCKASHDIKSYLSWYQQKPWRSPKTLIYYTTALADGVPSRFSGSGSGQDYSLTISSLESDDTATYYCLQHGESPYTFGGGTKLEIK
